The record followed here is article PMC5650360, “Maslinic acid promotes autophagy by disrupting the interaction between Bcl2 and Beclin1 in rat pheochromocytoma PC12 cells” (Oncotarget, 2017).

The target in the assay is T1, rat Beclin1 BH3 domain and Coiled Coil domain (residues 100-266) (rat, UniProt Q91XJ1 100-266).
T1 construct: Beclin1, rat, BH3 domain and coiled coil domain, residues 100-266; Cloned in a modified pET32 vector with a human rhinovirus 3C protease site and without thioredoxin; source: E. coli BL21 (DE3), purified (HisTrap HP, 3C cleavage, Superdex 75)
Put plainly: ITC; 200 μM Beclin1 injected (2 μl aliquots) into 200 μl of 20 μM Bcl2, 50 mM Tris pH 8.0, 150 mM NaCl, Auto-iTC200, without MA. Conditions: both partners purified. A general note: Isothermal titration calorimetry measures the heat released or taken up as one component is titrated into another.

T1 sequence (Q91XJ1 100-266): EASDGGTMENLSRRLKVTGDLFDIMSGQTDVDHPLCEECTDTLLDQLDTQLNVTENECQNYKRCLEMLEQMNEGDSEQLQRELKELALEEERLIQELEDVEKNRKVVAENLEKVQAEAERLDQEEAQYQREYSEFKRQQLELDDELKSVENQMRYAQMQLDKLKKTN

B1: BH3 motif containing region of rat Bcl2 (residues 1-156), un-tagged version (domain or fragment, UniProt P49950 1-156, looked up)
chain: MAQAGRTGYDNREIVMKYIHYKLSQRGYEWDTGDEDSAPLRAAPTPGIFSFQPESNRTPAVHRDTAARTSPLRPLVANAGPALSPVPPVVHLTLRRAGDDFSRRYRRDFAEMSSQLHLTPFTARGRFATVVEELFRDGVNWGRIVAFFEFGGVMCV
notes: Bcl2, rat, BH3 motif containing region, residues 1-156; Cloned as a GST fusion in a modified pET32 vector with a 3C protease site
The term Kd denotes the free concentration of one partner at which half of the binding sites on the other are occupied at equilibrium, for simple one-to-one binding. B1 came in with a Kd of roughly 7.3 µM.
